Measured values as given in article PMC2745324 (Biochemistry, 2009).
Where two headings read alike, the source gives them in different places.

Experiments:
[1] = biological target: human adenylosuccinate lyase K246E mutant (human) (UniProt P30566)
[2] = biological target: human adenylosuccinate lyase K246E mutant (human) (UniProt P30566); assay: AUC
[3] = biological target: the molecule itself; assay: AUC
[4] = biological target: the molecule itself; assay: SEC
[5] = biological target: the molecule itself; assay: AUC; remark: listed apart in the source
[6] = biological target: the molecule itself; assay: AUC; remark: listed apart in the source

Molecule	Vmax of SAMP cleavage at 25 °C [1] [µmol/min/mg]	percent as dimer (D-12mer model) [2] [%]	stoichiometry N [2]	percent as monomer (M-Tet model) [3] [%]	percent as tetramer (M-Tet model) [3] [%]	stoichiometry N [4]	percent as monomer (M-Tet model) [5] [%]	percent as tetramer (M-Tet model) [5] [%]	stoichiometry N [6]
human adenylosuccinate lyase K246E mutant (from UniProt P30566 1-481) (enzyme)	0.23	94	2	–	–	–	–	–	–
human adenylosuccinate lyase, wild type (enzyme) MAAGGDHGSPDSYRSPLASRYASPEMCFVFSDRYKFRTWRQLWLWLAEAEQTLGLPITDEQIQEMKSNLENIDFKMAAEEEKRLRHDVMAHVHTFGHCCPKAAGIIHLGATSCYVGDNTDLIILRNALDLLLPKLARVISRLADFAKERASLPTLGFTHFQPAQLTTVGKRCCLWIQDLCMDLQNLKRVRDDLRFRGVKGTTGTQASFLQLFEGDDHKVEQLDKMVTEKAGFKRAFIITGQTYTRKVDIEVLSVLASLGASVHKICTDIRLLANLKEMEEPFEKQQIGSSAMPYKRNPMRSERCCSLARHLMTLVMDPLQTASVQWFERTLDDSANRRICLAEAFLTADTILNTLQNISEGLVVYPKVIERRIRQELPFMATENIIMAMVKAGGSRQDCHEKIRVLSQQAASVVKQEGGDNDLIERIQVDAYFSPIHSQLDHLLDPSSFTGRASQQVQRFLEEEVYPLLKPYESVMKVKAE	–	–	–	20	80	4	32	68	–
human adenylosuccinate lyase L311V mutant (enzyme) MAAGGDHGSPDSYRSPLASRYASPEMCFVFSDRYKFRTWRQLWLWLAEAEQTLGLPITDEQIQEMKSNLENIDFKMAAEEEKRLRHDVMAHVHTFGHCCPKAAGIIHLGATSCYVGDNTDLIILRNALDLLLPKLARVISRLADFAKERASLPTLGFTHFQPAQLTTVGKRCCLWIQDLCMDLQNLKRVRDDLRFRGVKGTTGTQASFLQLFEGDDHKVEQLDKMVTEKAGFKRAFIITGQTYTRKVDIEVLSVLASLGASVHKICTDIRLLANLKEMEEPFEKQQIGSSAMPYKRNPMRSERCCSLARHVMTLVMDPLQTASVQWFERTLDDSANRRICLAEAFLTADTILNTLQNISEGLVVYPKVIERRIRQELPFMATENIIMAMVKAGGSRQDCHEKIRVLSQQAASVVKQEGGDNDLIERIQVDAYFSPIHSQLDHLLDPSSFTGRASQQVQRFLEEEVYPLLKPYESVMKVKAE	–	–	–	40	60	4	32	68	–
human adenylosuccinate lyase R396C mutant (enzyme) MAAGGDHGSPDSYRSPLASRYASPEMCFVFSDRYKFRTWRQLWLWLAEAEQTLGLPITDEQIQEMKSNLENIDFKMAAEEEKRLRHDVMAHVHTFGHCCPKAAGIIHLGATSCYVGDNTDLIILRNALDLLLPKLARVISRLADFAKERASLPTLGFTHFQPAQLTTVGKRCCLWIQDLCMDLQNLKRVRDDLRFRGVKGTTGTQASFLQLFEGDDHKVEQLDKMVTEKAGFKRAFIITGQTYTRKVDIEVLSVLASLGASVHKICTDIRLLANLKEMEEPFEKQQIGSSAMPYKRNPMRSERCCSLARHLMTLVMDPLQTASVQWFERTLDDSANRRICLAEAFLTADTILNTLQNISEGLVVYPKVIERRIRQELPFMATENIIMAMVKAGGSCQDCHEKIRVLSQQAASVVKQEGGDNDLIERIQVDAYFSPIHSQLDHLLDPSSFTGRASQQVQRFLEEEVYPLLKPYESVMKVKAE	–	–	–	32	68	–	40	60	4
human adenylosuccinate lyase R396H mutant (enzyme) MAAGGDHGSPDSYRSPLASRYASPEMCFVFSDRYKFRTWRQLWLWLAEAEQTLGLPITDEQIQEMKSNLENIDFKMAAEEEKRLRHDVMAHVHTFGHCCPKAAGIIHLGATSCYVGDNTDLIILRNALDLLLPKLARVISRLADFAKERASLPTLGFTHFQPAQLTTVGKRCCLWIQDLCMDLQNLKRVRDDLRFRGVKGTTGTQASFLQLFEGDDHKVEQLDKMVTEKAGFKRAFIITGQTYTRKVDIEVLSVLASLGASVHKICTDIRLLANLKEMEEPFEKQQIGSSAMPYKRNPMRSERCCSLARHLMTLVMDPLQTASVQWFERTLDDSANRRICLAEAFLTADTILNTLQNISEGLVVYPKVIERRIRQELPFMATENIIMAMVKAGGSHQDCHEKIRVLSQQAASVVKQEGGDNDLIERIQVDAYFSPIHSQLDHLLDPSSFTGRASQQVQRFLEEEVYPLLKPYESVMKVKAE	–	–	–	–	–	–	34	66	4
human adenylosuccinate lyase R194C mutant (enzyme) MAAGGDHGSPDSYRSPLASRYASPEMCFVFSDRYKFRTWRQLWLWLAEAEQTLGLPITDEQIQEMKSNLENIDFKMAAEEEKRLRHDVMAHVHTFGHCCPKAAGIIHLGATSCYVGDNTDLIILRNALDLLLPKLARVISRLADFAKERASLPTLGFTHFQPAQLTTVGKRCCLWIQDLCMDLQNLKRVRDDLCFRGVKGTTGTQASFLQLFEGDDHKVEQLDKMVTEKAGFKRAFIITGQTYTRKVDIEVLSVLASLGASVHKICTDIRLLANLKEMEEPFEKQQIGSSAMPYKRNPMRSERCCSLARHLMTLVMDPLQTASVQWFERTLDDSANRRICLAEAFLTADTILNTLQNISEGLVVYPKVIERRIRQELPFMATENIIMAMVKAGGSRQDCHEKIRVLSQQAASVVKQEGGDNDLIERIQVDAYFSPIHSQLDHLLDPSSFTGRASQQVQRFLEEEVYPLLKPYESVMKVKAE	–	–	–	37	63	4	33	67	–
